# Measurements published in patent US20100184108.
# T1: 15-residue histone H3 trimethylated Lys9 (H3K9me3) substrate peptide, H2N-ARTKQTARK(tri-methyl)STGGKA-amide
# T1 chain: ARTKQTARKSTGGKA
# Target: T1, 15-residue histone H3 trimethylated …
protein,measurement,value
"catalytic domain, residues 1-350, of the human histone demethylase JMJD2A (protein) MASESETLNPSARIMTFYPTMEEFRNFSRYIAYIESQGAHRAGLAKVVPPKEWKPRASYDDIDDLVIPAPIQQLVTGQSGLFTQYNIQKKAMTVREFRKIANSDKYCTPRYSEFEELERKYWKNLTFNPPIYGADVNGTLYEKHVDEWNIGRLRTILDLVEKESGITIEGVNTPYLYFGMWKTSFAWHTEDMDLYSINYLHFGEPKSWYSVPPEHGKRLERLAKGFFPGSAQSCEAFLRHKMTLISPLMLKKYGIPFDKVTQEAGEFMITFPYGYHAGFNHGFNCAESTNFATRRWIEYGKQAVLCSCRKDMVKISMDVFVRKFQPERYKLWKAGKDNTVIDHTLPTPEA","fluorescence of the formaldehyde-Luminos reagent adduct (demethylase activity, positive control assay)","57,000±400 relative fluorescence units"
same,fold reduction in the fluorescence signal when a component is omitted,"Omission of 2-OG, the H3K9me3 peptide, or JMJD2A results in a ˜30-fold reduction in the fluorescence signal"
same,signal to background ratio (positive control reactions against negative control assays),signal to background ratio of 20:1 or greater
